Results published in patent US20140227179A1 (published 2014).

Target: T1, MUC5ac mucin (PAM4 antigen) from CaPan1 human pancreatic carcinoma (human, UniProt P98088 28-5654, limits assumed, heavily glycosylated native mucin)
T1 construct: The antigen was never used as a pure recombinant protein; also called CaPan1 Ag; CaPan1 antigens
Assay: ELISA on target mucin antigen (FIG. 9)

B1: PAM4-F(ab′)2 (other)
chain 1: EVQLQESGPELVKPGASVKMSCKASGYTFPSYVLHWVKQKPGQGLEWIGYINPYNDGTQYNEKFKGKATLTSDKSSSTAYMELSRLTSEDSAVYYCARGFGGSYGFAYWGQGTLITVSA
chain 2: DIVMTQSPAIMSASPGEKVTMTCSASSSVSSSYLYWYQQKPGSSPKLWIYSTSNLASGVPARFSGSGSGTSYSLTISSMEAEDAASYFCHQWNRYPYTFGGGTKLEIK
  EC50: 1.83 nM
